Read-outs that look alike come from different tables or passages of the source.
T1: linear 15mer peptides derived from human CD3ε residues 5-20 (Set 3) (human)
T1 construct: also called peptides spanning residues 5-20
T1 peptide: EEMGGITQTPYKVSIS

T2: linear 15mer peptide derived from human CD3ε residues 2-16 (wild type of the substitution library, Set 1) (human)
T2 construct: Probed as a saturation mutagenesis library on a peptide array
T2 peptide: DGNEEMGGITQTPYK

T3: linear 15mer peptide derived from cynomolgus CD3ε residues 2-16 (wild type of the substitution library, Set 2) (cynomolgus)
T3 construct: Probed as a saturation mutagenesis library on a peptide array
T3 peptide: DGNEEMGSITQTPYQ

T4: linear 15mer peptides derived from cynomolgus CD3ε residues 5-20 (Set 4) (cynomolgus)
T4 construct: also called peptides spanning residues 5-20
T4 peptide: EEMGSITQTPYQVSIS

B1: clone-03 (antibody, V domains shown)
VH: QSLEESGGRLVTPGTPLTLTCTVSGFPLNRYAMLWVRQAPGKGLEWIGLITRADKKYYASWAKGRFTISKTSTTVDLEITGPTTEDTATYFCARRHYNTDGYPIAIGDLWGPGTLVTVSS
VL: AQVLTQTPSSVSAAVGGTVTISCQSNENIYSNNRLSWFQQKPGQPPNQLIYSASSLASGVPSRFKGSGSGTQFTLTISDLECDDAATYYCQGEFNCNSADCFTFGGGTEVVVKG
notes: Recombinant rabbit IgG; also called Clone 3
B2: anti-IL5R×CD3ε scDb containing Numab's anti-CD3 domain (humanized clone 6), Example 9 (bispecific antibody)
chain: DIQMTQSPSSLSASVGDRVTITCQASQNIYSNLAWYQQKPGKAPKLLIYRASTLASGVPSRFSGSGSGTDFTLTISSLQPEDFATYYCQSNYGINYYGAAFGQGTKLTVLGGGGGSEVQLVESGGGLVQPGGSLRLSCAASGFPLSSYAMIWVRQAPGKGLEWIGMILRAGNIYYASWVKGRFTISRDNSKNTVYLQMNSLRAEDTAVYYCARRHYNREGYPIGIGDLWGQGTLVTVSSGGGGSGGGGSGGGGSGGGGSDIQMTQSPSSLSASVGDRVTITCQSSESVYNNKRLSWYQQKPGKAPKLLIYTASSLASGVPSRFSGSGSGTDFTLTISSLQPEDFATYYCQGEFTCSNADCFTFGQGTKLTVLGGGGGSEVQLVESGGGLVQPGGSLRLSCAASGFSLSSYDMTWVRQAPGKGLEWIGIIYVSGSAYYASWAKGRFTISRDNSKNTVYLQMNSLRAEDTAVYYCARINYGLDLWGQGTLVTVSS

How the values were obtained:
[1] = target: T5, human CD3ε expressed on the cell surface of T cells (Jurkat cells; human CD8+ T cells) (human, UniProt P07766 23-207); assay: cell-based ELISA on Jurkat cells
T5 construct: whole, on cells; also called native CD3ε embedded in the TCR complex on Jurkat cells
Protocol: (§1) Jurkat cells (clone E6-1), a human T cell line, were seeded at 300,000 cells/well in round bottom 96-well plates in 100 μl phosphate-buffered saline (PBS) containing 10% FBS. Five-fold serial dilutions of anti-CD3 rabbit monoclonal antibodies ranging from 90 nM to 0.0058 nM were added to the plates in 100 μl PBS containing 10% FBS. […] This secondary antibody was linked to the enzyme horseradish peroxidase (HRP). HRP activity was measured by addition of TMB substrate (3,3′,5,5′-tetramethylbenzidine, KPL, Cat. No. 53-00-00), which in a colorimetric reaction is processed by the HRP. The color intensity of the processed substrate is directly proportional to the amount of anti-CD3 antibody bound to Jurkat cells. To quantify color intensity, light absorbance (optical density) at the respective wave length was measured using a microtiter plate reader (Infinity reader M200 Pro, Tecan).
(§2) To correct for unspecific binding of the antibodies to unknown components presented on the cell surface of Jurkat cells, a CD3ε deficient derivative of the Jurkat T cell line (J.RT3-T3.5) was used. Binding of the monoclonal antibodies to this cell line was measured as described above for the Jurkat cells. For quantification of specific binding to Jurkat cells, the optical density for binding to the negative control was subtracted from the optical density for binding to Jurkat cells. Data were analyzed using a four-parameter logistic curve fit using the Softmax Data Analysis Software (Molecular Devices), and the molar concentration of anti-CD3 antibody required to reach 50% binding (EC₅₀, mid-OD of the standard curve) was derived from dose response curves.

[2] = target: T1, linear 15mer peptides derived from …; assay: peptide array ELISA, Set 3
Protocol: (§3) The binding of the antibodies to each of the synthesized peptides was tested by ELISA. The peptide arrays were incubated with primary antibody solution (overnight at 4° C.). After washing, the peptide arrays were incubated with a 1/1000 dilution of an antibody peroxidase conjugate (SBA, cat.nr.2010-05) for one hour at 25° C. After washing, the peroxidase substrate 2,2′-azino-di-3-ethylbenzthiazoline sulfonate (ABTS) and 2 μl/ml of 3% H₂O₂ were added. After one hour, the color development was measured. The color development was quantified with a charge coupled device (CCD)—camera and an image processing system.

[3] = target: T5, human CD3ε expressed on the cell …; assay: cell-based ELISA on Jurkat cells, CD3ε-deficient Jurkat subtracted
Protocol: as §1, §2

[4] = target: T6, cynomolgus monkey heterodimeric single-chain CD3εγ extracellular domain (cynomolgus monkey, UniProt Q95LI5 22-117; Q95LI7 23-113); assay: SPR, rabbit IgG captured, cyno single-chain CD3εγ ECD injected
[5] = target: T5, human CD3ε expressed on the cell …; assay: cell-based or functional assay
[6] = target: T7, human heterodimeric single-chain CD3εγ extracellular domain (human, UniProt P07766 23-126; P09693 23-116); assay: SPR, rabbit IgG captured, human single-chain CD3εγ ECD injected
T7 construct: extracellular domain; Produced in-house; also called scCD3γε; human CD3ge
Protocol: (§4) Binding affinities of monoclonal rabbit anti-CD3 antibodies were measured by surface plasmon resonance (SPR) using a MASS-1 SPR instrument (Sierra Sensors). […] Rabbit monoclonal antibodies were captured by the immobilized anti-rabbit IgG antibody. Two-fold serial dilutions of human heterodimeric single-chain CD3εγ extracellular domain (produced in-house) ranging from 90 to 2.81 nM were injected into the flow cells for 3 min and dissociation of the protein from the IgG captured on the sensor chip was allowed to proceed for 5 min. After each injection cycle, surfaces were regenerated with two injections of 10 mM glycine-HCl. The apparent dissociation (kd) and association (ka) rate constants and the apparent dissociation equilibrium constant (KD) were calculated with the MASS-1 analysis software (Analyzer, Sierra Sensors) using one-to-one Langmuir binding model.

[7] = target: T2, linear 15mer peptide derived from human …; assay: 15mer peptide array ELISA
[8] = target: T3, linear 15mer peptide derived from …; assay: 15mer peptide array ELISA
[9] = target: T7, human heterodimeric single-chain CD3εγ …; assay: SPR, rabbit IgG captured, human single-chain CD3εγ ECD injected; remark: listed apart in the source
Protocol: as §4

[10] = target: T4, linear 15mer peptides derived from …; assay: peptide array ELISA, Set 4
Protocol: as §3

[11] = target: T6, cynomolgus monkey heterodimeric …; assay: SPR; ratio of the KDs for cyno and human single-chain CD3εγ
[12] = target: T8, cynomolgus monkey CD3ε expressed on the surface of HSC-F T cells (cynomolgus monkey, UniProt Q95LI5 22-198); assay: cell-based ELISA on cyno HSC-F T cells
T8 construct: whole, on cells; also called cyno HSC-F T cells

[13] = target: T6, cynomolgus monkey heterodimeric …; assay: SPR, rabbit IgG captured, cyno single-chain CD3εγ ECD injected; remark: listed apart in the source
[14] = target: T5, human CD3ε expressed on the cell …; assay: cell-based or functional assay; remark: listed apart in the source

T6 sequence (Q95LI7 other isoform, or with tags, fused parts or gaps): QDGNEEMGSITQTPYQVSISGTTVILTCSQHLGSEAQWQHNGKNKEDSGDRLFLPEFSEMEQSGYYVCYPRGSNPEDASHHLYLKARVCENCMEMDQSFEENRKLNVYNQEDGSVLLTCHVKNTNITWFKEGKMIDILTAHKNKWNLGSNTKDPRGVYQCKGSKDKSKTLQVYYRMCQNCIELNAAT
T8 sequence (Q95LI5 22-198): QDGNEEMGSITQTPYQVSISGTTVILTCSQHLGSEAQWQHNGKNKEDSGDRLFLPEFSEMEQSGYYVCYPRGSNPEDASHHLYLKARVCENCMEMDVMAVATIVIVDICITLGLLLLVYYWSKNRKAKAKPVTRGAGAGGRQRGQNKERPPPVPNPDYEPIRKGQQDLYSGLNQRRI

Binder | EC50 [1] [nM] | binding result [2] | EC50 [3] [nM] | Kd [4] [nM] | Fold increase in CD69 expression [MFI normalized to neg. ctrl.], 1.25 µg/ml anti-CD3 IgG [5] [fold] | Fold increase in CD69 expression [MFI normalized to neg. ctrl.], 5 µg/ml anti-CD3 IgG [5] [fold] | Fold increase in CD69 expression [MFI normalized to neg. ctrl.], 20 µg/ml anti-CD3 IgG [5] [fold] | Kd [6] [nM] | koff [6] [s⁻¹] | kon [6] [M⁻¹ s⁻¹] | binding result [7] | binding result [8] | Kd [9] [nM] | binding result [10] | KD (human)/KD (cyno) [11] | EC50 [12] [nM] | Kd [13] [nM] | koff [13] [s⁻¹] | kon [13] [M⁻¹ s⁻¹] | EC50 in the dose-response curve of specific lysis of CHO-IL5R target cells at 64 hours [14] [nM]
B1 | 1.45 | no binding | 1.45 | 11.5 | 2.6 | 4.6 | 6.6 | 0.905 | 0.000498 | 551000 | binds | binds | 0.905 | no binding | 13 | 23.9 | 11.5 | 0.00403 | 350000 | –
B2 | – | – | – | – | – | – | – | – | – | – | – | – | – | – | – | – | – | – | – | 0.31

Source: patent US20180244777A1 (NUMAB THERAPEUTICS, published 2018)
